To fix the notation:
B1: V0004 (antibody, V domains shown)
VH: QVQLQQPGAELVKPGASVKLSCKASDYTFTNYWMHWVKQRPGRGLEWIGRIDPNSGGTRYNEKFKNKATLTVDKPSSTAYMHLSSLTSEDSAVYYCAGDFDVWGTGTTVTVSS
VL: DIQMTQSPASLSASVGETVTITCRASGNIHNYLAWYQQRQGKSPQLLVYNAKTLPDGVPSRFSGSGSGTQYSLKINSLQPEDFGSYCCQHFWSTPLTFGAGTKLELK
modifications: non-phosphorylated
B2: V0024 (antibody, V domains shown)
VH: QVQLQQPGTELVKPGASVKLSCKASGYTFTRFWMHWVKQRPGQGLEWIGNINPNNGGTDNNERFKSKATLTVDRSSSTAYMQLSSLTSEDSAVYYCARGTGTGAMDYWGQGTSVTVSS
VL: DVVMTQTPLSLPVSLGDQASISCRSSQSLVHSNGNTHLYWYLQKPGQSPKLLIYRVSSRFSGVPDRFSGSGSGTDFTLKISRVEAEDLGVYFCFQGTHVPRTFGGGTKLEIK
modifications: non-phosphorylated
B3: V0009 (antibody, V domains shown)
VH: EVQLVESGGALVQPGGSLSLSCAASGFTFTDYYMSWVRQPPGKALEWLALIRNKAKGFTTEYSASVKGRFTISRDNSQSILLFQMNDLRADDSATYYCVRDINYWGQGTTLTVSS
VL: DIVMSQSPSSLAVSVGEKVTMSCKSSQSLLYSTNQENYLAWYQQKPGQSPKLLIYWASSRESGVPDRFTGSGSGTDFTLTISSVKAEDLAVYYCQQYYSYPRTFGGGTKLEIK
modifications: non-phosphorylated

The target of this assay is wild type tau (human, UniProt P10636). As to the kind of experiment: ELISA. A general note: An ELISA detects its analyte on a solid surface through an enzyme-linked reagent.
Sequence of wild type tau (P10636 2-758): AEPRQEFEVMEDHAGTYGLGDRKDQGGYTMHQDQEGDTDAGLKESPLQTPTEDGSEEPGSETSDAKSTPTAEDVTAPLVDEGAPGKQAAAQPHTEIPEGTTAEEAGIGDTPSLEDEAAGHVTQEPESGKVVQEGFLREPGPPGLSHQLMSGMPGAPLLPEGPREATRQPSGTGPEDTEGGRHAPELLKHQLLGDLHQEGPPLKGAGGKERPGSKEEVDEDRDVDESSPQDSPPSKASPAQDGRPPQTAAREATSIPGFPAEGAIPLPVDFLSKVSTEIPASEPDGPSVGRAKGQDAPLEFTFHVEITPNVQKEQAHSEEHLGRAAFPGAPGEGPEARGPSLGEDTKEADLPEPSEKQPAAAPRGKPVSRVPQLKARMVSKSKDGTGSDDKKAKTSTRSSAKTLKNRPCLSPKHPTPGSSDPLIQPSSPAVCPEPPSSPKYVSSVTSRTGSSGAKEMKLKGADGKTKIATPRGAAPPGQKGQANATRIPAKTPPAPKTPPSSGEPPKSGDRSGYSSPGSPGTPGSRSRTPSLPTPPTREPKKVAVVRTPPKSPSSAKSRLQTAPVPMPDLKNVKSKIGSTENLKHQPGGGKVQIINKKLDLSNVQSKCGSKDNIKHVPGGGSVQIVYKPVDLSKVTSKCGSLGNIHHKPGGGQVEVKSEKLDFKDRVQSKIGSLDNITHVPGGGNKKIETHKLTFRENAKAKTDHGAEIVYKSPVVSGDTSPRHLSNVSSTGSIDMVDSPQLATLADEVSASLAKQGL
As to B1, the binding result was “no binding”.

With B2, the binding result is on record as “no binding”.

B3: the binding result is “no binding”.

For the origin of these results see patent US20260317782 (published 2026).
